Reference: publication PMC9507969, “Visualizing maturation factor extraction from the nascent ribosome by the AAA-ATPase Drg1” (Nature Structural & Molecular Biology, 2022)

B1: Drg1 (diazaborine resistance gene 1), wild type, purified (enzyme, S. cerevisiae)
chain: MAPKSSSSGSKKKSSASSNSADAKASKFKLPAEFITRPHPSKDHGKETCTAYIHPNVLSSLEINPGSFCTVGKIGENGILVIARAGDEEVHPVNVITLSTTIRSVGNLILGDRLELKKAQVQPPYATKVTVGSLQGYNILECMEEKVIQKLLDDSGVIMPGMIFQNLKTKAGDESIDVVITDASDDSLPDVSQLDLNMDDMYGGLDNLFYLSPPFIFRKGSTHITFSKETQANRKYNLPEPLSYAAVGGLDKEIESLKSAIEIPLHQPTLFSSFGVSPPRGILLHGPPGTGKTMLLRVVANTSNAHVLTINGPSIVSKYLGETEAALRDIFNEARKYQPSIIFIDEIDSIAPNRANDDSGEVESRVVATLLTLMDGMGAAGKVVVIAATNRPNSVDPALRRPGRFDQEVEIGIPDVDARFDILTKQFSRMSSDRHVLDSEAIKYIASKTHGYVGADLTALCRESVMKTIQRGLGTDANIDKFSLKVTLKDVESAMVDIRPSAMREIFLEMPKVYWSDIGGQEELKTKMKEMIQLPLEASETFARLGISAPKGVLLYGPPGCSKTLTAKALATESGINFLAVKGPEIFNKYVGESERAIREIFRKARSAAPSIIFFDEIDALSPDRDGSSTSAANHVLTSLLNEIDGVEELKGVVIVAATNRPDEIDAALLRPGRLDRHIYVGPPDVNARLEILKKCTKKFNTEESGVDLHELADRTEGYSGAEVVLLCQEAGLAAIMEDLDVAKVELRHFEKAFKGIARGITPEMLSYYEEFALRSGSSS
notes: Drg1 (AFG2), hexameric type-II AAA-ATPase of S. cerevisiae, wild type; Hexamer in the cryo-EM maps; also called DRG1 (AFG2); AAA-ATPase Drg1; source: overexpressed in yeast as GST fusion (CuSO4-induced), purified on GSH-agarose, eluted by Prescission protease cleavage
B5: Nog1 on the pre-60S particle (natural protein, UniProt Q02892 1-647, looked up)
chain: MQLSWKDIPTVAPANDLLDIVLNRTQRKTPTVIRPGFKITRIRAFYMRKVKYTGEGFVEKFEDILKGFPNINDVHPFHRDLMDTLYEKNHYKISLAAISRAKSLVEQVARDYVRLLKFGQSLFQCKQLKRAALGRMATIVKKLRDPLAYLEQVRQHIGRLPSIDPNTRTLLICGYPNVGKSSFLRCITKSDVDVQPYAFTTKSLYVGHFDYKYLRFQAIDTPGILDRPTEEMNNIEMQSIYAIAHLRSCVLYFMDLSEQCGFTIEAQVKLFHSIKPLFANKSVMVVINKTDIIRPEDLDEERAQLLESVKEVPGVEIMTSSCQLEENVMEVRNKACEKLLASRIENKLKSQSRINNVLNKIHVAQPQARDDVKRTPFIPESVKNLKKYDPEDPNRRKLARDIEAENGGAGVFNVNLKDKYLLEDDEWKNDIMPEILDGKNVYDFLDPEIAAKLQALEEEEEKLENEGFYNSDDEEEIYDGFEASEVDDIKEKAAWIRNRQKTMIAEARNRKSLKNKAIMPRSKLTKSFGKMEEHMSTLGHDMSALQDKQNRAARKNRYVERGSDVVFGDQDALTASTENGVKLRQTDRLLDGVADGSMRSKADRMAKMERRERNRHAKQGESDRHNAVSLSKHLFSGKRGVGKTDFR
notes: Nog1 of S. cerevisiae; source: endogenous, on pre-60S particles purified from S. cerevisiae via Bud20-TAP (cryo-EM, blots) or Arx1-TAP (cross-linking)
B7: Rlp24 (ribosomal-like protein 24) on the pre-60S particle (natural protein)
chain: not shown
notes: Ribosomal-like protein 24 (Rlp24) of S. cerevisiae

Tests used:
[1] = target: the molecule itself; assay: cryo-EM structure; purified Drg1 (1.75 mg/ml, 12 µM) mixed 1:1 with 200 nM export-competent Bud20-TAP pre-60S particles, 2 mM ATPγS, 10 minutes; particle-bound Drg1 and free Drg1 hexamers picked from the same dataset
[2] = target: export-competent pre-60S particle purified via Bud20-TAP (S. cerevisiae (endogenous in the yeast …, UniProt Q08004 1-166; Q07915 1-199; Q03862 1-593; Q02892 1-647; P38861 1-518; P33201 …, Partial protein list of a heterogeneous ~2.1 MDa endogenous particle: members named in the text plus L2-A, L3 and L4-A from the PDB 7Z34 candidate entities. Tif6 is not named in the text and is inferr); assay: SPR; Biacore X100; pre-60S particles captured through the Protein A moiety of Bud20-TAP on IgG immobilized on a CM3 chip; 25-150 nM Drg1 injected with 1 mM ATPγS; sigmoidal dose-response with variable slope on normalized RU; settings: both partners purified
[3] = target: B1; assay: cryo-EM structure; purified Drg1 (1.75 mg/ml, 12 µM) mixed 1:1 with 200 nM export-competent Bud20-TAP pre-60S particles, 2 mM ATPγS, 10 minutes; particle-bound Drg1 and free Drg1 hexamers picked from the same dataset; settings: both partners purified
[4] = target: B1; assay: SPR; Biacore X100; GST-Rlp24C amine-coupled on a CM5 chip, GST in the reference cell; 75-10,000 nM Drg1 injected with 1 mM ATPγS; 20 mM HEPES, 10 mM KCl, 2.5 mM MgCl2, 100 mM NaCl, 0.05% Tween-20, 1 mM DTT, pH 7.5; one-site binding hyperbola on normalized RU; settings: both partners purified
[5] = target: B1; assay: pull-down; GST-tagged bait on GSH-agarose beads; 80 µg Drg1 in 120 µl binding buffer (20 mM HEPES-KOH, 150 mM potassium acetate, 5 mM magnesium acetate, 0.1% Tween-20, 1 mM DTT, pH 6.8); 1 mM ATP or ATPγS or no nucleotide; 60 minutes, room temperature; settings: both partners purified
[6] = target: B1; assay: cross-linking; pre-60S particles purified via Arx1-TAP from drg1-18 (TEV eluate) incubated with 150 µg purified Drg1 and 1 mM ATPγS, cross-linked with 1.5 mM DSS or BS3 (isotopically labeled), 30 minutes, 30 °C; LC-MS/MS, xQuest/xProphet; settings: both partners purified
[7] = target: B7; assay: co-IP; affinity purification of pre-60S particles via Bud20-TAP from S. cerevisiae crm1^T539C (untreated, LmB and/or diazaborine; ARX1 or Δarx1 background), SDS-PAGE and western blotting; settings: partners not purified
[8] = target: B5; assay: cryo-EM structure; purified Drg1 (1.75 mg/ml, 12 µM) mixed 1:1 with 200 nM export-competent Bud20-TAP pre-60S particles, 2 mM ATPγS, 10 minutes; particle-bound Drg1 and free Drg1 hexamers picked from the same dataset; settings: both partners purified

B1
stoichiometry N [1]: 6
EC50 [2]: 46 nM

B2: Arx1 on the pre-60S particle (natural protein, UniProt Q03862 1-593, looked up)
chain: MALAISHEDTQILLKDKNILQESVLNKYRTAGQIAQTALKYVTSLINDSYHSKTTQRQLTVPELCLLTDSFILTRLEQYYKNKVNERGIAIPTTIDIDQISGGWCPEIDDTQNLLNWNKGKDSTFASSVTGTLRPGDLVKITLGVHIDGYTSEVSHTMVIYPVDETKPILQPTGPLLGGKADAVAAAHIAMETVVALLACALTPEKLPASLGGTSSGITGQLIRTIVDTIARSYNCGVVPGSRVRRIRRFLAGQNEGIVAEREYKGVVWTESHQEADLLSNTDAKDLTVVDRGQSTPFTNVSAIPSDDFVVQSGEVYLIDLKMASLEHCTKKGLVTLETVDSYTGKSHKAGELIARPGAYVRDFAQTHILKLKTSRQLLTKIDKQGVYPFKLSHLSSNFPFVHENEEELQSLKKDLKSFRLGMSEISNNYLCVESPIQIARWVPWDHILKATNPNGNLSYDATSTLTLPGHELPLPKLGVSAIKLKSLMNSTKESISLPVARECNTIVLCDSSVSTTDRPELLRLTGGSKTCQPSWIHSQHELNPQDSIVQGIFQLATLAKDKRFGLLLKETQPMKQKSVETSNGGVEETMKM
notes: Arx1 of S. cerevisiae, maturation factor at the exit of the polypeptide exit tunnel; source: endogenous, on pre-60S particles purified via Bud20-TAP from S. cerevisiae crm1^T539C after LmB treatment
binding result [3]: binds

B3: GST-Rlp24C (Rlp24 C domain, aa 146-199) (domain or fragment, S. cerevisiae, UniProt Q07915 146-199, looked up)
chain: AKEQERAESVSEQEESEEEEEDMEIDSDEEEEEQLEKQKILLKNRRRNTKKIAF
notes: Ribosomal-like protein 24 (Rlp24) of S. cerevisiae, C domain, aa 146-199; In the ATPase assays a HIS6-tagged Rlp24C made in E. coli was used instead of the GST fusion; source: purified
Kd [4]: 2700 nM

B4: GST-Rlp24C RKK>E (R191E, K195E, K196E) (domain or fragment, S. cerevisiae, UniProt Q07915 146-199, looked up)
chain: AKEQERAESVSEQEESEEEEEDMEIDSDEEEEEQLEKQKILLKNRERNTEEIAF
notes: Rlp24 of S. cerevisiae, C domain aa 146-199 with three exchanges in the tail; In the ATPase assay the HIS6-tagged form of this variant was used
binding result [5]: binds

B5
binding result [6]: binds

B6: Bud20-TAP (natural protein, S. cerevisiae)
chain: MGRYSVKRYKTKRRTRDLDLIYNDLSTKESVQKLLNQPLDETKPGLGQHYCIHCAKYMETAIALKTHLKGKVHKRRVKELRGVPYTQEVSDAAAGYNLNKFLNRVQEITQSVGPEKESNEALLKEHLDSTLANVKTTEPTLPWAAADAEANTAAVTEAESTASAST
notes: Bud20 of S. cerevisiae; For cryo-EM the Protein A part of the tag was removed by TEV cleavage; source: expressed in S. cerevisiae crm1^T539C; bait of the pre-60S particle purification
binding result [7]: binds

B7
binding result [8]: binds
